Experimental data taken from patent US5082772A, “Process for preparing deacetylcephalosporin C” (priority 1988, dated 1992).

B1: recombinantly produced DAOC synthase (Streptomyces clavuligerus) (protein)
chain: MDTTVPTFSLAELQQGLHQDEFRRCLRDKGLFYLTDCGLTDTELKSAKDLVIDFFEHGSEAEKRAVTSPVPTMRRGFTGLESESTAQITNTGSYSDYSMCYSMGTADNLFPSGDFERIWTQYFDRQYTASRAVAREVLRATGTEPDGGVEAFLDCEPLLRFRYFPQVPEHRSAEEQPLRMAPHYDLSMVTLIQQTPCANGFVSLQAEVGGAFTDLPYRPDAVLVFCGAIATLVTGGQVKAPRHHVAAPRRDQIAGSSRTSSVFFLRPNADFTFSVPLARECGFDVSLDGETATFQDWIGGNYVNIRRTSKA
notes: made in house; host or cells: Escherichia coli K12 JM109 (plasmid pOW382)
B2: native synthase (Streptomyces clavuligerus) (protein)
chain: B1 chain
notes: native synthase, evaluated with the partially purified enzyme; endogenous in cells; host or cells: Streptomyces clavuligerus cells, crude extract, three-step purification (Mono Q eluate)

Tests used:
[1] = substrate: CC1(C)S[C@@H]2[C@H](NC(=O)CCC[C@@H](N)C(=O)O)C(=O)N2[C@H]1C(=O)O; test: Kinetics of recombinant enzyme (Lineweaver-Burk); type: biochemical, Streptomyces clavuligerus; details: other: recombinant enzyme, pH 7.0, 50 mM HEPES buffer, 36° C.
Method: The kinetics of the native enzyme and recombinant enzyme were determined under the optimal reaction conditions for the enzyme, i.e., at pH 7.0 in 50 mM HEPES buffer at 36° C.

[2] = substrate: O=C(O)CCC(=O)C(=O)O; test: purified protein, by the assay type; details: 36° C.
[3] = substrate: CC1(C)S[C@@H]2[C@H](NC(=O)CCC[C@@H](N)C(=O)O)C(=O)N2[C@H]1C(=O)O; test: Kinetics of native synthase, partially purified (Mono Q eluate); type: biochemical, Streptomyces clavuligerus; details: other: native partially purified enzyme, Tris-HCl buffer, 36° C., pH 7.0

| Protein | Km [1] [µM] | Km ([2]; other: recombinant enzyme, pH 7.0, 50 mM HEPES buffer) [µM] | Km ([2]; other: native partially purified enzyme, Tris-HCl buffer, pH 7.0) [µM] | Km [3] [µM] |
| --- | --- | --- | --- | --- |
| B1 | 29 | 18 | – | – |
| B2 | – | – | 22 | 35 |
